In the Immune Epitope Database (IEDB):

Key:
HLA-A*69:01 = test: IEDB peptide-MHC binding, purified MHC/direct/fluorescence; filed as Kd, often an IC50 or EC50 that approximates it; ≥ and ≤ were set here for values at or beyond the usual limits of such assays
HLA-A*02:01 = test: as above
HLA-C*07:02 = test: as above
HLA-B*27:20 = test: IEDB peptide-MHC binding, purified MHC/competitive/fluorescence; filed as Kd, often an IC50 or EC50 that approximates it; ≥ and ≤ were set here for values at or beyond the usual limits of such assays; details: source organism: Cryptosporidium parvum Iowa II
HLA-A*68:23 = test: as above; details: source organism: Cryptosporidium parvum Iowa II
HLA-B*40:13 = test: as above; details: source organism: Cryptosporidium parvum Iowa II
HLA-B*83:01 = test: as above
HLA-B*15:42 = test: as above
HLA-B*45:06 = test: as above
HLA-A*32:07 = test: as above; details: source organism: Cryptosporidium parvum Iowa II
HLA-B*08:01 = test: IEDB peptide-MHC binding, purified MHC/direct/fluorescence; filed as Kd, often an IC50 or EC50 that approximates it; ≥ and ≤ were set here for values at or beyond the usual limits of such assays; details: source organism: Escherichia coli
HLA-B*07:02 = test: as above; details: source organism: Escherichia coli
HLA-B*27:05 = test: as above; details: source organism: Escherichia coli
HLA-B*40:01 = test: as above; details: source organism: Escherichia coli
HLA-A*26:01 = test: as above; details: source organism: Escherichia coli
HLA-A*30:01 = test: as above; details: source organism: Escherichia coli
HLA-A*11:01 = test: as above; details: source organism: Escherichia coli
HLA-A*31:01 = test: as above; details: source organism: Escherichia coli
HLA-A*01:01 [1] = test: as above; details: source organism: Escherichia coli
HLA-B*15:01 = test: as above; details: source organism: Escherichia coli
HLA-A*03:01 = test: as above; details: source organism: Escherichia coli
HLA-B*58:01 = test: as above; details: source organism: Escherichia coli
HLA-B*73:01 = test: IEDB peptide-MHC binding, purified MHC/competitive/fluorescence; filed as Kd, often an IC50 or EC50 that approximates it; ≥ and ≤ were set here for values at or beyond the usual limits of such assays; details: source organism: Escherichia coli str. K-12 substr. MG1655
HLA-C*06:02 = test: IEDB peptide-MHC binding, purified MHC/direct/fluorescence; filed as Kd, often an IC50 or EC50 that approximates it; ≥ and ≤ were set here for values at or beyond the usual limits of such assays; details: source organism: Homo sapiens
HLA-C*12:03 = test: as above; details: source organism: Homo sapiens
HLA-A*29:02 = test: IEDB peptide-MHC binding, purified MHC/competitive/fluorescence; filed as Kd, often an IC50 or EC50 that approximates it; ≥ and ≤ were set here for values at or beyond the usual limits of such assays; details: source organism: Homo sapiens
HLA-A*01:01 [2] = test: as above; details: source organism: Homo sapiens
HLA-C*04:01 = test: as above; details: source organism: Homo sapiens
[3] = source organism: Cryptosporidium parvum
[4] = source organism: Cryptosporidium parvum Iowa II
[5] = source organism: Escherichia coli

MQFPGSVGF
Kd (HLA-A*69:01; [3]): 3.64 µM
Kd (HLA-A*02:01; [3]): 0.769 µM
Kd (HLA-C*07:02; [4]): 0.429 µM
Kd (HLA-B*27:20): 0.0008 µM
Kd (HLA-A*68:23): 0.0424 µM
Kd (HLA-B*40:13): 0.0009 µM
Kd (HLA-B*83:01; [4]): ≥ 5 µM
Kd (HLA-B*15:42; [4]): ≥ 5 µM
Kd (HLA-B*45:06; [4]): ≥ 5 µM
Kd (HLA-A*32:07): 0.0012 µM

RRRIGEIFK
Kd (HLA-B*08:01): ≥ 20 µM
Kd (HLA-B*07:02): ≥ 20 µM
Kd (HLA-A*69:01; [5]): ≥ 20 µM
Kd (HLA-B*27:05): 0.0642 µM
Kd (HLA-B*40:01): ≥ 20 µM
Kd (HLA-A*26:01): ≥ 20 µM
Kd (HLA-A*30:01): 0.00586 µM
Kd (HLA-A*02:01; [5]): ≥ 20 µM
Kd (HLA-A*11:01): ≥ 20 µM
Kd (HLA-A*31:01): ≥ 20 µM
Kd (HLA-A*01:01 [1]): ≥ 20 µM
Kd (HLA-B*15:01): ≥ 20 µM
Kd (HLA-A*03:01): ≥ 20 µM
Kd (HLA-B*58:01): ≥ 20 µM
Kd (HLA-B*73:01): ≥ 20 µM

YYWPRPRRY
Kd (HLA-C*07:02; source organism: Homo sapiens): ≤ 0.001 µM
Kd (HLA-C*06:02): 0.014 µM
Kd (HLA-C*12:03): 0.283 µM
Kd (HLA-A*29:02): ≤ 0.0001 µM
Kd (HLA-B*83:01; source organism: Homo sapiens): ≥ 5 µM
Kd (HLA-A*01:01 [2]): ≥ 20 µM
Kd (HLA-B*15:42; source organism: Homo sapiens): ≥ 5 µM
Kd (HLA-B*45:06; source organism: Homo sapiens): ≥ 5 µM
Kd (HLA-C*04:01): ≥ 5 µM
